Assay results taken from the supplement of paper PMC7877785.
± gives the uncertainty stated by the source.

Assay: self-splicing fitness, log relative to wild type (ln ratio); higher = more splicing; Tetrahymena group I intron in knt gene, E. coli kanamycin selection, DiMSum; sequences stand for … in CUCUCU…GGAGGGAAAAGUUAUCAGGCAUGCACCUGGUAGCUAGUCUUUAAACCAAUAGAUUGCAUCGGUUUAAAAGGCAAGACCGUCAAAUUGCGGGAAAGGGGUCAACAGCCGUUCAGUACCAAGUCUCAGGGGAAACUUUGAGAUGGCCUUGCAAAGGGUAUGGUAAUAAGCUGACGGACAUGGUCCUAACCACGCAGCCAAGUCCUAAGUCAACAGAUCUUCUGUUGAUAUGGAUGCAGUUCACAGACUAAAUGUCGGUCGGGGAAGAUGUAUUCUUCUCAUAAGAUAUAGUCGGACCUCUCCUUAAUGGGAGCUAGCGGAUGAAGUGAUGCAACACUGGAGCCGCUGGGAACUAAUUUGUAUGCGAAAGUAUAUUGAUUAGUUUUGGAGUACUCGUGGUCG
Procedure, shortened: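 DiMSum derived fitness as the error-weighted combination of fold changes across replicates, kanamycin versus no kanamycin, normalised to wild type. E. coli BL21(DE3) held the library, which randomised all eight P1ex-region intron nucleotides within the knt kanamycin-resistance gene on pET-22b(+). Six replicate transformations grew overnight at 37°C or 30°C on LB agar with or without 25 μg/mL kanamycin, also containing 100 μg/mL carbenicillin, 50 μM IPTG and 0.2% rhamnose, and pooled colonies were amplicon-sequenced on an Illumina HiSeq 2500.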

Sequence | self-splicing fitness (ln) (37 °C) | self-splicing fitness (ln) (30 °C)
AGUGAGCAAUAUUACGAGAC | -2.17 ± 0.24 | 
AGUGAGCAAUAUUACGAUAG | -2.18 ± 0.34 | -2.34 ± 0.17
AGUGAGCAAUAUUACGCUAC | -2.3 ± 0.23 | -2.96 ± 0.16
AGUGAGCAAUAUUACGGAGC | -3.36 ± 0.33 | -1.89 ± 0.18
AGUGAGCAAUAUUACGGAGG | -2.67 ± 0.27 | -3.77 ± 0.28
AGUGAGCAAUAUUACGGCCG | -1.59 ± 0.24 | -3.46 ± 0.29
AGUGAGCAAUAUUACGGCUC | -2.03 ± 0.2 | -4.11 ± 0.26
AGUGAGCAAUAUUACGGGGU | -2.67 ± 0.21 | -4.06 ± 0.25
AGUGAGCAAUAUUACGGGUU | -2.35 ± 0.33 | -2.39 ± 0.26
AGUGAGCAAUAUUACGGUCG | -1.97 ± 0.18 | -3.55 ± 0.24
AGUGAGCAAUAUUACGGUGA | -2.96 ± 0.3 | -3.03 ± 0.31
AGUGAGCAAUAUUACGGUGG | -2.69 ± 0.3 | -3.06 ± 0.19
AGUGAGCAAUAUUACGGUGU | -3.73 ± 0.34 | -4.01 ± 0.29
AGUGAGCAAUAUUACGUAAA | -1.3 ± 0.18 | -3.58 ± 0.22
AGUUAGCAAUAUUACGAAUU | -0.649 ± 0.12 | -1.62 ± 0.11
AGUUAGCAAUAUUACGACAG | -0.495 ± 0.12 | -0.556 ± 0.098
AGUUAGCAAUAUUACGACCU | -0.469 ± 0.097 | -0.34 ± 0.09
AGUUAGCAAUAUUACGACGC | 0.486 ± 0.13 | -0.0216 ± 0.11
AGUUAGCAAUAUUACGAUGU | -0.307 ± 0.11 | -1.48 ± 0.096
AGUUAGCAAUAUUACGAUUU | 0.175 ± 0.11 | 0.0118 ± 0.094
AGUUAGCAAUAUUACGCCUG | -1.46 ± 0.25 | -1.74 ± 0.21
AGUUAGCAAUAUUACGCGGG | -0.533 ± 0.15 | -4.1 ± 0.33
AGUUAGCAAUAUUACGCUCG | -0.636 ± 0.19 | -0.0767 ± 0.16
AGUUAGCAAUAUUACGGCAA | 0.163 ± 0.11 | -0.82 ± 0.08
AGUUAGCAAUAUUACGGCUA | -0.127 ± 0.11 | -0.379 ± 0.11

Sequence | self-splicing fitness (ln) (37 °C) | self-splicing fitness (ln) (30 °C)
AGUUAGCAAUAUUACGGGCU | -1.79 ± 0.24 | -3.01 ± 0.28
AGUUAGCAAUAUUACGGUAC | -2.76 ± 0.28 | -1.49 ± 0.2
AGUUAGCAAUAUUACGGUCU | -0.0741 ± 0.087 | -0.221 ± 0.081
AGUUAGCAAUAUUACGGUGC | -2.44 ± 0.2 | -3.15 ± 0.17
AGUUAGCAAUAUUACGUAUG | -2.67 ± 0.29 | -1.57 ± 0.15
AGUUAGCAAUAUUACGUCAA | -0.718 ± 0.13 | -3.02 ± 0.26
AGUUAGCAAUAUUACGUGCU | -1.78 ± 0.21 | -2.35 ± 0.14
AUAAAGCAAUAUUACGAAAG | -1.25 ± 0.14 | -2.01 ± 0.12
AUAAAGCAAUAUUACGACCG | -0.14 ± 0.18 | -0.25 ± 0.13
AUAAAGCAAUAUUACGAGCU | 0.246 ± 0.086 | -0.379 ± 0.06
AUAAAGCAAUAUUACGAGUC | -2.07 ± 0.14 | -3.52 ± 0.13
AUAAAGCAAUAUUACGCGGG | -1.4 ± 0.16 | -2.55 ± 0.13
AUAAAGCAAUAUUACGCGGU | -0.6 ± 0.11 | -1.8 ± 0.12
AUAAAGCAAUAUUACGCUAG | -0.165 ± 0.12 | -0.761 ± 0.1
AUAAAGCAAUAUUACGGAGU | -0.598 ± 0.088 | -0.717 ± 0.072
AUAAAGCAAUAUUACGGAUU | 0.0214 ± 0.091 | -1.15 ± 0.077
AUAAAGCAAUAUUACGGCCA | 0.15 ± 0.13 | 0.232 ± 0.11
AUAAAGCAAUAUUACGGCUA | -0.15 ± 0.14 | 0.756 ± 0.14
AUAAAGCAAUAUUACGGCUC | 1.04 ± 0.15 | 0.203 ± 0.11
AUAAAGCAAUAUUACGGUAU | -0.0795 ± 0.1 | -0.836 ± 0.068
AUAAAGCAAUAUUACGGUUG | -1.36 ± 0.15 | -1.68 ± 0.1
AUAAAGCAAUAUUACGUCUG | -0.47 ± 0.11 | -0.676 ± 0.079
AUAAAGCAAUAUUACGUGAA | -0.724 ± 0.12 | -1.39 ± 0.094
AUAAAGCAAUAUUACGUGCG | 0.137 ± 0.1 | -0.493 ± 0.083
AUACAGCAAUAUUACGAAAG | -0.9 ± 0.17 | -2.62 ± 0.19

Sequence | self-splicing fitness (ln) (37 °C) | self-splicing fitness (ln) (30 °C)
AUACAGCAAUAUUACGAACC | -0.458 ± 0.16 | -2.11 ± 0.15
AUACAGCAAUAUUACGAACU | 0.0661 ± 0.099 | -0.142 ± 0.079
AUACAGCAAUAUUACGAAGU | -1.22 ± 0.11 | -3.31 ± 0.12
AUACAGCAAUAUUACGAAUC | -2.3 ± 0.18 | -4.08 ± 0.25
AUACAGCAAUAUUACGACAA | -0.929 ± 0.12 | -1.19 ± 0.093
AUACAGCAAUAUUACGACGA | -0.966 ± 0.13 | -1.84 ± 0.13
AUACAGCAAUAUUACGACGG | -0.835 ± 0.13 | -3.2 ± 0.15
AUACAGCAAUAUUACGAGUU | -0.493 ± 0.1 | -2.65 ± 0.14
AUACAGCAAUAUUACGAUUC | -0.118 ± 0.096 | -2.06 ± 0.1
AUACAGCAAUAUUACGCAAG | -1.49 ± 0.13 | -2.28 ± 0.12
AUACAGCAAUAUUACGCCAU | -0.757 ± 0.14 | -2.01 ± 0.13
AUACAGCAAUAUUACGCCGG | -1.38 ± 0.21 | -2.34 ± 0.17
AUACAGCAAUAUUACGCGGA | -1.74 ± 0.14 | -2.02 ± 0.17
AUACAGCAAUAUUACGCUAA | -1.01 ± 0.12 | -1.96 ± 0.12
AUACAGCAAUAUUACGCUUC | -3.25 ± 0.24 | -3.06 ± 0.17
AUACAGCAAUAUUACGGAGA | -0.736 ± 0.27 | -3.81 ± 0.33
AUACAGCAAUAUUACGGAUA | -2.38 ± 0.17 | -2.52 ± 0.14
AUACAGCAAUAUUACGGCCA | -0.783 ± 0.1 | -0.834 ± 0.11
AUACAGCAAUAUUACGGGAU | -0.747 ± 0.1 | -0.898 ± 0.076
AUACAGCAAUAUUACGGUGU | -2.18 ± 0.13 | -3.8 ± 0.2
AUACAGCAAUAUUACGUACU | 0.38 ± 0.083 | -0.171 ± 0.059
AUACAGCAAUAUUACGUAGU | -0.206 ± 0.083 | -1.34 ± 0.067
AUACAGCAAUAUUACGUCAA | -1.05 ± 0.1 | -2.32 ± 0.15
AUACAGCAAUAUUACGUCCG | -1.38 ± 0.17 | -1.75 ± 0.13
AUACAGCAAUAUUACGUCGA | -1.23 ± 0.12 | -1.77 ± 0.13
